Laboratory results published in US20240109974A1 (SHANDONG SIMCERE BIOPHARMACEUTICAL, published 2024).
Substitutions are numbered along the chain they refer to.

B1: 224-Hu1 (antibody, V domains shown)
VH: QVQLVQSGAEVKKPGASVKVSCKASGFNNKDIYMHWVRQAPGQGLEWIGRIDPATGNTKHDPKFQDRVTMTSDTSTNTVYMELSSLRSEDTAVYYCARSPYGDFGAMDYWGQGTLVTVSS
VL: DIQMTQSPSSLSASVGDRVTITCTASSSVSSNYLHWYQQKPGKAPKLWIYSTSNLPSGVPSRFSGSGSGTDFTLTISSLQPEDFATYYCHQYHRSPWTFGQGTKVEIK
notes: Humanized form of #224; also called VH8 + VL6
B2: 224-Hu7 (antibody, V domains shown)
VH: QVQLVQSGSELKKPGASVKVSCKASGFNNKDIYMHWVRQAPGQGLEWMGRIDPATGNTKHDPKFQDKAVLSSDTSVSTAYLQISSLKAEDTAVYYCARSPYGDFGAMDYWGQGTLVTVSS
VL: B1 VL with W48L
notes: Humanized form of #224; also called VH9 + VL10
B3: 224-Hu5 (antibody, V domains shown)
VH: B2 VH
VL: B1 VL with W48L, F72Y, T73S
notes: Humanized form of #224; also called VH9 + VL9
B4: 224-Hu3 (antibody, V domains shown)
VH: B2 VH
VL: B1 VL with W48L, P81A, F84A
notes: Humanized form of #224; also called VH9 + VL8
B5: 224-Hu4 (antibody, V domains shown)
VH: B2 VH
VL: B1 VL
notes: Humanized form of #224; also called VH9 + VL6
B6: 224-Hu2 (antibody, V domains shown)
VH: B2 VH
VL: B1 VL with K43S, A44S
notes: Humanized form of #224; also called VH9 + VL7
B7: 224-Hu6 (antibody, V domains shown)
VH: B1 VH
VL: B1 VL with K43S, A44S
notes: Humanized form of #224; also called VH8 + VL7

Assays:
[1] = molecular target: T1, human TNFR2 on the surface of CHO-TNFR2 cells (human, UniProt P20333 23-461); experiment: competition flow cytometry on CHO-TNFR2 cells, competitor TNFα-biotin; AUC against 224-WT
T1 construct: whole, on cells
T1 sequence (looked up): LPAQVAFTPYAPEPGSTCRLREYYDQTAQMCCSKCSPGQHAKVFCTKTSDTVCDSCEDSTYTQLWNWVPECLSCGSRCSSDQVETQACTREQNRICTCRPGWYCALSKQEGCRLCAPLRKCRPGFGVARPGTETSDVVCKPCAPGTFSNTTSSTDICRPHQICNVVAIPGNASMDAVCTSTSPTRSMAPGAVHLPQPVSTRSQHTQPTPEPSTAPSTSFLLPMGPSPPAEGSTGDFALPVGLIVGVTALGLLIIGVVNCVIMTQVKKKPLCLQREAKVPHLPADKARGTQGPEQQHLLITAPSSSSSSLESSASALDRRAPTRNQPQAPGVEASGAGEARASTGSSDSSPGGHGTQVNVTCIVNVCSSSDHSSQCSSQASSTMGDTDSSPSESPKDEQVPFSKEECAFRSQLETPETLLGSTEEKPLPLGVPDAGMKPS
Procedure: (§1) CHO stable cells highly expressing human TNFR2 were used for the experiment (the same as CHO-TNFR2 in Example 4). The CHO-TNFR2 cells were digested, washed twice with DPBS, then stained with Live/Dead (L/D) (20 minutes at room temperature), and plated at a density of 1×10⁵ cells/50 μl/well. A test anti-TNFR2 antibody was diluted to 6 μg/ml with a staining buffer as the starting concentration: the antibody was subjected to 3.33-fold gradient dilution, with a total of 7 concentration points. The diluted antibody was added to the plated cells at 50 μl/well, and the mixture was mixed well by gentle pipetting, and incubated at 4° C. for 30 minutes. Then the diluted 100 ng/ml of human TNFα-biotin was added at 100 μl/well, and the mixture was mixed well by gentle pipetting, and then incubated at 4° C. for 30 minutes. The mixture was washed twice with a staining buffer, and then 0.12 μg/ml PE-streptavidin (BioLegend, Cat #405204) was added at 100 μl/well; the resulting mixture was incubated at 4° C. for 30 minutes. The mixture was washed twice with a staining buffer, and then 150 μl of staining buffer was added to resuspend the cells; signals were detected by a flow cytometer (Thermo Attune NxT). The inhibitory curve of an antibody was drawn with antibody concentration as the abscissa and corresponding MFI value as the ordinate, and fitted with four parameters (GraphPad Prism9) to calculate the IC50 value. The smaller the IC50 value, the stronger the ability of an antibody to inhibit the binding of human TNFα to human TNFR2. The blocking effect of a humanized antibody was normalized to its corresponding human-murine chimeric WT antibody. The higher the percentage value, the better the inhibitory effect of the humanized antibody.

[2] = molecular target: T2, Cynomolgus TNFR2-His (Sino 90102-C08H) (cynomolgus monkey, UniProt A0A2K5VET2 132-366); experiment: ELISA, cynomolgus TNFR2-His coated; EC50 against 224-WT
T2 construct: Bought protein; also called cynomolgus monkey TNFR2; recombinant cynomolgus monkey TNFR2 protein; not shown: His tag
T2 sequence: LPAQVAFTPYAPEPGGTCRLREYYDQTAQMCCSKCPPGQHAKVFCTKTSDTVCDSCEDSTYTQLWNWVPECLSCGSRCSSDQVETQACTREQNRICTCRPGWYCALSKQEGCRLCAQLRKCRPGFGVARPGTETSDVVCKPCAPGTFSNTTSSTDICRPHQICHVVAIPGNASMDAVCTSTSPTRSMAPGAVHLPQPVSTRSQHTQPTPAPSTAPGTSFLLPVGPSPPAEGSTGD
Procedure: The test humanized antibody against TNFR2 (as described in Example 1, the antibody was comprised of variable regions linked to IgG-Fc; the WT chimeric antibody also adopted the IgG-Fc structure) was subjected to 3.33-fold gradient dilution, loaded with 100 μl/well, and incubated with shaking at room temperature for 1.5 hours. The plate was washed, and then a working solution of murine anti-human IgG Fc-HRP (diluted at 1:10000) was added, loaded with 100 μl/well, and incubated with shaking at room temperature for 1.0 hour. The plate was washed again, and then the substrate TMB of HRP was added to develop colour. A stop solution was added to stop the reaction, and then a microplate reader (MD 13) was used to read the absorbance value. The binding curve of an antibody was drawn with antibody concentration as the abscissa and corresponding OD value as the ordinate, and fitted with four parameters (GraphPad Prism9) to calculate the EC50 value. The smaller the EC50 value, the stronger the binding ability of an antibody to human/cynomolgus monkey TNFR2. The binding effect of a humanized antibody was normalized to its corresponding human-murine chimeric antibody WT (see SEQ ID NOs: 38-43 for the sequence). The higher the percentage value, the better the binding effect of the humanized antibody. The results of binding of an anti-TNFR2 antibody to a human TNFR2 protein are shown in FIG. 1 and Table 4, and the results of binding of an anti-TNFR2 antibody to cynomolgus monkey TNFR2 are shown in FIG. 2 and Table 4.

[3] = molecular target: T1, human TNFR2 on the surface of CHO-TNFR2 …; experiment: competition flow cytometry on CHO-TNFR2 cells, competitor TNFα-biotin; IC50 against 224-WT
Procedure: as §1

Binder	% Relative activity (WT antibody/test antibody) [1]	% Relative activity (WT antibody/test antibody) [2]	% Relative activity (WT antibody/test antibody) [3]
B1	99.2%	105%	108%
B2	91.1%	116%	73%
B3	94.4%	106%	95%
B4	95.6%	108%	107%
B5	97.3%	108%	102%
B6	105%	109%	124%
B7	99.4%	104%	96%
